Reference: US20250243286A1 (SIXPEAKS BIO, published 2025)
Where two headings read alike, the source gives them in different places.

T1: human ActRIIB (human, UniProt Q13705 19-137, limits assumed)
T1 construct: antigen in MSD-SET; also called ACVR2B; ActR2B
T1 sequence: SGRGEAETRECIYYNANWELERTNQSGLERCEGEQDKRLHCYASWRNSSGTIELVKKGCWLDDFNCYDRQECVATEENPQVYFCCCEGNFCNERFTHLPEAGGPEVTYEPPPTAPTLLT


Columns and labels:
human ActRIIB [1] = target: T1, human ActRIIB; test: MSD-SET
mouse ActRIIA = mouse ActRIIA (mouse, UniProt P27038 20-135, limits assumed); test: MSD-SET
Pig ActRIIA = Pig ActRIIA (pig, UniProt F1S0H6 20-135); test: MSD-SET
human ActRIIB [2] = target: T1, human ActRIIB; test: MSD-SET; remark: listed apart in the source
Dog ActRIIA = Dog ActRIIA (dog, UniProt A0A8I3MYH0 20-135); test: MSD-SET
human ActRIIB [3] = target: T1, human ActRIIB; test: MSD-SET, preliminary
human ActRIIA [4] = target: T2, human ActRIIA (human, UniProt P27037 20-135, limits assumed); test: MSD-SET
T2 construct: antigen in MSD-SET; also called ACVR2A; ActR2A

[5] = target: T3, ActRIIA and ActRIIB (on TGFB/SMAD SBE Reporter HEK293 cells) (human); test: cell-based or functional assay
human ActRIIB [6] = target: T1, human ActRIIB; test: MSD-SET; Fab, not IgG
human ActRIIA [7] = target: T2, human ActRIIA; test: MSD-SET; remark: listed apart in the source
human ActRIIB [8] = target: T1, human ActRIIB; test: MSD-SET; human ActRIIB; full antibody, separate cross-reactivity study (Table 6A)
[9] = target: T3, ActRIIA and ActRIIB (on TGFB/SMAD SBE …)
[10] = target: T3, ActRIIA and ActRIIB (on TGFB/SMAD SBE …); remark: listed apart in the source
[11] = target: T3, ActRIIA and ActRIIB (on TGFB/SMAD SBE …); test: cell-based or functional assay; remark: listed apart in the source
human ActRIIA [12] = target: T2, human ActRIIA; test: MSD-SET; remark: listed apart in the source
human ActRIIB [13] = target: T1, human ActRIIB; test: MSD-SET; human ActRIIB; full-length IgG (Table 4B)
[14] = target: T3, ActRIIA and ActRIIB (on TGFB/SMAD SBE …); test: cell-based or functional assay; remark: listed apart in the source
human ActRIIA [15] = target: T2, human ActRIIA; test: MSD-SET; remark: listed apart in the source

T2 sequence (P27037 20-135 limits assumed): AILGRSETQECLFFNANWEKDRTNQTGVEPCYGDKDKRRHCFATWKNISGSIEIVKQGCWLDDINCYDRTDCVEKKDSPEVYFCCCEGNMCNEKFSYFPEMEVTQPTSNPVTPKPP
mouse ActRIIA, sequence (P27038 20-135 limits assumed): as the sequence (P27037 20-135 limits assumed) above, with K20R, V73I counted along it

Binder | Kd (mouse ActRIIA) | Kd (Pig ActRIIA) | Kd (Dog ActRIIA) | Kd (human ActRIIA [4]) | IC50, Activin SMAD RGA [5] | IC50, Myostatin SMAD RGA [5] | IC50 fold difference (Fab:IgG), Activin SMAD RGA [5] | IC50 fold difference (Fab:IgG), Myostatin SMAD RGA [5] | Kd (human ActRIIB [6]) | Kd (human ActRIIA [7]) | Kd (human ActRIIB [8]) | IC50, Activin SMAD RGA [11] | IC50, Myostatin SMAD RGA [11] | IC90, Activin SMAD RGA [11] | IC90, Myostatin SMAD RGA [11] | Kd (human ActRIIB [13]) | Kd (human ActRIIA [15]) | further results
Soidawürstle Fab (Fab, V domains shown, Fab; also called Soidawüsrstel (Fab)) VH: QVQLVQSGAEVRKPGSSVKVSCKASGYTFTSSYINWVRQAPGQGLEWMGTINPVSGSTSYAQKFQGRVTITADTSTSTAYMELSSLRSEDTAVYYCARGGWFDYWGQGTLVTVSS VL: QSALTQPRSVSGSPGQSVTISCTGTSSDVGSYNRVNWYQQHPGKAPKLMIYGVSKRESGVPDRFSGSKSGNTASLTISGLQAEDEADYYCGTFAGGRYYGVFGGGTKLTVL | 0.04 nM | 0.022 nM | 0.028 nM |  |  |  |  |  |  |  |  |  |  |  |  |  |  | Kd (human ActRIIB [1]): 0.0026 nM; Kd (human ActRIIB [2]): 0.011 nM; Kd (human ActRIIB [3]): 0.0197 nM
Wurschdsalat Fab (Fab, V domains shown, Fab) VH: QVQLVQSGAEVKKPGASVKVSCKASGYTFTSSYINWVRQAPGQGLEWMGTINAVSGSTSYAQKFQGRVTMTRDESISTAYMELSRLRSDDTAVYYCARGGWFDYWGQGTLVTVSS VL: QSALTQPASVSGSPGQSITISCTGTSSDVGSYNYVNWYQQHPGKAPKLMIYGVSKRESGVSNRFSGSKSGNTASLTISGLQAEDEADYYCGTFAGGKYYGVFGGGTKLTVL |  |  |  | 0.125 nM | 9.9 nM | 13.4 nM | 33.8 fold | 40.7 fold | 0.823 nM |  |  |  |  |  |  |  |  | 
Antibody Hefaknöpfla (antibody, V domains shown, full-length IgG) VH: QVQLVQSGAEVKKPGASVKVSCKASGYTFTSSYINWVRQAPGQGLEWMGTINAVSGSTSYAQKFQGRVTMTRDTSISTAYMELSRLRSDDTAVYYCARGGWFDYWGQGTLVTVSS VL: QSALTQPASVSGSPGQSITISCTGTSSDVGSKNYVNWYQQHPGKAPKLMIYGVSKRESGVSNRFSGSKSGNTASLTISGLQAEDEADYYCGTFAGGKYYGVFGGGTKLTVL |  |  |  | 0.015 nM | 0.13 nM | 0.26 nM |  |  |  | 0.0123 nM | 0.0043 nM | 0.139 nM | 0.211 nM | 2.16 nM | 5.37 nM | 0.005 nM | 0.015 nM | IC50 (read off the curve); Activin-stimulated SMAD reporter gene assay [9]: 0.2 nM; IC50 (read off the curve); Myostatin-stimulated SMAD reporter gene assay [10]: 0.3 nM; Kd (human ActRIIA [12]): 0.015 nM; IC50 [nM] (assay not given) [14]: 0.011 nM; IC50 fold difference to bimagrumab (assay not given) [14]: 27 fold; IC90 [nM] (assay not given) [14]: 1.6 nM; IC90 fold difference to bimagrumab (assay not given) [14]: 4.11 fold
Antibody Duuranad (antibody, V domains shown, full-length IgG) VH: QVQLVQSGAEVKKPGASVKVSCKASGYTFTSSYINWVRQAPGQGLEWMGTINAVSGSTSYAQKFQGRVTMTRDTSISTAYMELSRLRSDDTAVYYCARGGWFDYWGQGTLVTVSS VL: QSALTQPASVSGSPGQSITISCTGTSSDVGSFNYVNWYQQHPGKAPKLMIRGVSKRESGVSNRFSGSKSGNTASLTISGLQAEDEADYYCGTFAGGAYYGVFGGGTKLTVL |  |  |  | 0.009 nM | 0.3 nM | 0.39 nM |  |  |  | 0.0212 nM | 0.0054 nM | 0.272 nM | 0.432 nM | 2.22 nM | 4.45 nM | 0.005 nM | 0.009 nM | 
Bimagrumab Fab (Fab, V domains shown, Fab) VH: QVQLVQSGAEVKKPGASVKVSCKASGYTFTSSYINWVRQAPGQGLEWMGTINPVSGSTSYAQKFQGRVTMTRDTSISTAYMELSRLRSDDTAVYYCARGGWFDYWGQGTLVTVSS VL: QSALTQPASVSGSPGQSITISCTGTSSDVGSYNYVNWYQQHPGKAPKLMIYGVSKRPSGVSNRFSGSKSGNTASLTISGLQAEDEADYYCGTFAGGSYYGVFGGGTKLTVL | 0.239 nM | 0.188 nM | 0.354 nM |  | 4.39 nM | 6.87 nM |  |  |  |  |  |  |  |  |  |  |  | 
Duuranad Fab (Fab, V domains shown, Fab) VH: QVQLVQSGAEVKKPGASVKVSCKASGYTFTSSYINWVRQAPGQGLEWMGTINAVSGSTSYAQKFQGRVTMTRDTSISTAYMELSRLRSDDTAVYYCARGGWFDYWGQGTLVTVSS VL: QSALTQPASVSGSPGQSITISCTGTSSDVGSFNYVNWYQQHPGKAPKLMIRGVSKRESGVSNRFSGSKSGNTASLTISGLQAEDEADYYCGTFAGGAYYGVFGGGTKLTVL |  |  |  | 0.047 nM | 6.19 nM | 7.85 nM | 20.5 fold | 20.2 fold | 0.36 nM |  |  |  |  |  |  |  |  | 
